Laboratory results as given in patent US20210198366A1 (NGM BIOPHARMACEUTICALS, published 2021).
Substitutions are numbered along the chain they refer to.

T1: human B7-H7 expressed on the cell surface (human, UniProt Q9UM44 23-414)
T1 sequence: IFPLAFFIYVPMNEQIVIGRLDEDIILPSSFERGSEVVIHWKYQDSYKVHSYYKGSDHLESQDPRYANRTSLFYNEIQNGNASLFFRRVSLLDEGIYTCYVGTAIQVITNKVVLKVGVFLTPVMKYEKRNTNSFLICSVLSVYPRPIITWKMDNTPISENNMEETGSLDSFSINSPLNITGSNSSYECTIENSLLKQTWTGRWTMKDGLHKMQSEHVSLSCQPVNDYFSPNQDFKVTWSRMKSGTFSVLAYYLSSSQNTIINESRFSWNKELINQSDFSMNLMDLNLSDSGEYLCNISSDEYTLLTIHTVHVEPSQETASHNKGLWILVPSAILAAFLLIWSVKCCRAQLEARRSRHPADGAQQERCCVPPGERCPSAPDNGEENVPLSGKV

T2: cynomolgus monkey B7-H7 expressed on HEK-293T cells (cynomolgus monkey)
T2 construct: also called cyno B7-H7; cells expressing cyno B7-H7
T2 chain: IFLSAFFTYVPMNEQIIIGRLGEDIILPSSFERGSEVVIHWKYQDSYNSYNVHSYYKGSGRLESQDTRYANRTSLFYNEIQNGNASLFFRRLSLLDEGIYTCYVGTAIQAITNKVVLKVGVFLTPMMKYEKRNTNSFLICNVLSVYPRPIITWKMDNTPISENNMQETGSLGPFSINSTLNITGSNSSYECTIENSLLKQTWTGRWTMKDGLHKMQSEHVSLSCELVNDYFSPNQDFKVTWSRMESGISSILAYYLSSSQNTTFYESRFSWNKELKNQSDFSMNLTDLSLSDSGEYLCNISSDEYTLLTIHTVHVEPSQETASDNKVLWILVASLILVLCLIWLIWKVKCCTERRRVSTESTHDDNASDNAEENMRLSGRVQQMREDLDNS

T3: soluble human B7-H7-Fc fusion protein (extracellular region of human B7-H7, aa 23-344, and a human Fc … (human, UniProt Q9UM44 23-344))
T3 construct: also called hB7-H7-Fc; soluble B7-H7
T3 sequence: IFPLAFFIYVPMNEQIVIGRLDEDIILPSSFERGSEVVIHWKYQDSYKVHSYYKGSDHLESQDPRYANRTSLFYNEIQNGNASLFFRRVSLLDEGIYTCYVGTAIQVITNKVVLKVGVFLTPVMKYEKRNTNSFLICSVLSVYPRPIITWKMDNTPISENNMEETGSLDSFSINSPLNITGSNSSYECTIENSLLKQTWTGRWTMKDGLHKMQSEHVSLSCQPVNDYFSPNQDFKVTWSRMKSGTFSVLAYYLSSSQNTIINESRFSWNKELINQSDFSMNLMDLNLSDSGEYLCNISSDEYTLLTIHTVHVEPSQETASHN

T4: human B7-H7 (soluble analyte in SPR) (human, UniProt Q9UM44 23-344, limits assumed)
T4 sequence: T3 sequence

B1: anti-B7-H7 antibody 5B10 (antibody, V domains shown)
VH: EVQLQQSGPELEKPGASVKISCKASGYSFTGYNMNWVKQSNGKSLEWIGNIDPYSGGSTYNQKFKGKATLTVDKSSSTASLQLKSLTSEDSSVYYCARSFYDAPYLTYWGQGTLVTVSA
VL: DIQMTQSPTSLSASVGETVTITCRASENIFIYLAWYQQKQGKSPQLLVFNAKTLAEGVPSRFSGSGSGTQFSLKINSLRPEDFGTYYCQHHYGTPPTFGGGTKLEV
notes: Mouse hybridoma antibody
B2: anti-B7-H7 antibody 1D3 (antibody, V domains shown)
VH: B1 VH with Q39E, K43R, L70M, S80Y, L81M, S92A, F100V, Y105W, T107A, Y108H
VL: DIQMTQSPASLSASVGETVTITCRASENIYIYLAWYQQKQGKSPQLLVYNAKTLAEGVPSRFSGSGSGTQFSLKINRLQPEDFGNYYCQHHYGTPPTFGGGTKLEIK
notes: Mouse hybridoma antibody
B3: anti-B7-H7 antibody 2F10 (antibody, V domains shown)
VH: EIQLQQTGPELVKPGASLRISCKASGYSFTDYIIVWVKQNQGKNLDWIEKINPYYGTTTYNLRFEDKATLTVNKSSTTAYMQLNSLTSEDSAVYYCARWDYVSTLFAMDYWGQGTSITVSS
VL: DIVMTQSHKVMSTSVGDRVSIICKASQDVGTAVAWYQQKPGQSPKLLIYWASTRHTGVPDRFTGSGSGTDFILTITNVQSENLANYFCQQYKRYYTFGGGTKLEIK
notes: Mouse hybridoma antibody
B4: anti-B7-H7 antibody 28F5 (antibody, V domains shown)
VH: QVQLKESGPGLVAPSQSLSITCTVSGFSLTGYGVNWVRQPPGKGLEWLGVIWGDGSTDYNSVLKSRLSISKDNSKSQVFLKMNSLQTDDTARYYCAREATEYLYWYFDVWGAGTTVTVSS
VL: DIVLTQSPASLAVSLGQRATISCRASESVEYYGSSLMQWYQQKPGQPPKLLIFAASNVESGVPPRFSGSGSGTDFNLNIHPVDEDDIAMYFCQQGRRVPWTFGGGTKLEIK
notes: Mouse hybridoma antibody
B5: anti-B7-H7 antibody 16D5 (antibody, V domains shown)
VH: QVQLQQSAAELARPGASVKMSCKASGYTFTTYTMHWVKQRPGQGLEWIGYINPSRGYSDYSQKFQGKSTLTTDKSSNTAYIQLTSLTSEDSAVYFCARGGYDFDYWGQGTTLTVSS
VL: DIVMTQSHKFMSTSVGDRVSITCKASQDVGTAVAWYQQKPGQSPKLLLYWASTRHTGVPDRFTGSGSGTDYTLTISSVQAEDLALYHCQQHFITPYTFGGGTKLEIK
notes: Mouse hybridoma antibody
B6: anti-B7-H7 antibody 5F7 (antibody, V domains shown)
VH: QEQLQQPGTELVKPGASVKISCKASGYTFSSYSMHWVKLTPGQGLEWMGTIYPGNENTSYNQKFKGKATLTADKSSSTAYMQLSSLTSEDSAVYYCARGGYYFDYWGQGTTLTVSS
VL: B5 VL with M11L, G30S, L48I, P59S, Y71F, H87Y, I93D, T94I, T97W
notes: Mouse hybridoma antibody
B7: anti-B7-H7 antibody 3H6 (antibody, V domains shown)
VH: EVQLQQSGPELVKPGASVKISCKTSGYTFTEYTMHWVKQSHGKSLEWIGGINPNNGGAPYNQKFKGKATLTVDKSSSTAYMELRSLTSEDSAVYYCARGGYYFDYWGQGTTLTVSS
VL: B5 VL with G30S, P40S, L48I, H87Y, F92Y, I93D, Y96F
notes: Mouse hybridoma antibody
B8: anti-B7-H7 antibody 5C9 (antibody, V domains shown)
VH: QVQLQQSGAELAKPGASVKMSCKASGYTFTSFWIHWIKQRPGQGLEWIGYIIPNTDYTEYNQKFKDKATFTADKSSSTAYMQLSSLTSEDSAVFYCARGLRGAYYFDYWGQGTTLTVSS
VL: DIVLTQSPASLAVSLGLRATISCRSSQSVSTSTNGYMHWYQQKPGQPPKLLIMYASNLESGVPARFSGSGSGTDFTLNIHPVDEEDTATYYCQHSWVLPYTFGGGTKLEIK
notes: Mouse hybridoma antibody
B9: chimeric 2D7 antibody comprising the murine heavy chain and light chain variable regions of 2D7 and a human Fc region (antibody, V domains shown)
VH: B7 VH with G56Y, S77N, V93I, R98S
VL: DIVMTQSHKFMSTSFGDRVSITCKASQDVGTAVAWYQQKLGQSPKLLISWAFTRHTGVPDRFTGSGSGTDYTLTISSLQAEDLALYYCQQHYDTPFTFGSGTKLEIK
B10: humanized anti-B7-H7 antibody Hz2D7 (antibody, human IgG1, kappa, V domains shown)
VH: QVQLVQSGAEVKKPGASVKVSCKTSGYTFTEYTMHWVRQAPGQGLEWMGGINPNNYGAPYNQKFKGRVTMTVDTSISTAYMELSRLRSDDTAVYYCASGGYYFDYWGQGTLVTVSS
VL: DIQMTQSPSSLSASVGDRVTITCKASQDVGTAVAWYQQKPGKAPKLLIYWAFTRHTGVPSRFSGSGSGTDYTLTISSLQPEDFATYYCQQHYDTPFTFGQGTKVEIKR

Each binder was assayed against T1, human B7-H7 expressed on the cell … (assay: cell-based or functional assay).

Binder	Induction of NK-92 cytotoxicity EC50 [nM]	Induction of NK-92 cytotoxicity Relative efficacy [%]
B1	1.6	148
B2	1.2	136
B3	0.9	146
B4	0.5	150
B5	0.5	135
B6	0.6	151
B7	0.8	105
B8	1.6	155

Target: T2, cynomolgus monkey B7-H7 expressed on …
Experiment: FACS on HEK-293T cells expressing cyno B7-H7

MFI [MFI]	Binder
93	B1
214	B2
134	B3
165	B4
199	B5
195	B6
568	B7
176	B8

These binders were tested against T3, soluble human B7-H7-Fc fusion protein … (assay: FACS competition: antibody titrated against soluble hB7-H7-Fc binding to HEK-293 cells expressing human KIR3DL3).
Procedure: (§1) Exemplary anti-B7-H7 antibodies identified by ELISA and FACS were tested for their ability to block binding of soluble B7-H7 to receptors KIR3DL3 or CD28H in a FACS assay. HEK-293 cells were transiently transfected with a construct encoding (i) a membrane-bound KIR3DL3 protein or (ii) a membrane-bound CD28H protein. After 48 hours, transfected cells were suspended in ice cold PBS containing 1% FBS and 0.1% sodium azide and incubated on ice in the presence of […]/ml of soluble human B7-H7-Fc protein and antibodies 2D7, 1D3, 28F3, 16D5, 2F10, 5F7, 5B10, 5C9, or 3H6 (serially diluted from […] to 4.6 ng/ml). A second incubation with an anti-human Fc secondary antibody was performed to detect cells bound by the soluble B7-H7-Fc. The cells were analyzed on a BD FACSCalibur instrument (BD Biosciences) and the data was processed using FlowJo software. Calculated IC50s are shown Table 12.

IC50 [nM]	Binder
2.4	B1
5	B2
2.5	B3
2.6	B4
1.7	B5
1.6	B6
2.7	B7
3	B8

Each binder was assayed against T1, human B7-H7 expressed on the cell … (assay: FACS on HEK-293T cells expressing human B7-H7).

MFI [MFI]	Binder
82	B1
247	B2
101	B3
152	B4
165	B5
163	B6
41	B7
185	B8

These binders were tested against T3, soluble human B7-H7-Fc fusion protein … (assay: FACS competition: antibody titrated against soluble hB7-H7-Fc binding to HEK-293 cells expressing human CD28H).
Procedure: as §1

IC50 [nM]	Binder
3.4	B1
8	B2
3	B3
2.7	B4
2	B5
1.8	B6
2.5	B7
3.4	B8

The binders below were run against T4, human B7-H7 (soluble analyte in SPR) (assay: SPR (Biacore), antibody captured by anti-Fc on CM5 chip, B7-H7 injected, 37 C).
Procedure: (§2) The binding affinities of exemplary anti-B7-H7 antibodies to human B7-H7 and cyno B7-H7 were measured using SPR technology (Biacore system, GE Healthcare Life Sciences). Briefly, anti-Fc antibody (Sigma-Aldrich) was immobilized on all four flow cells of a CM5 chip using amine coupling reagents (GE Healthcare LifeSciences). Exemplary antibodies were captured on flow cells 2, 3, and 4 using flow cell 1 as a reference. Human B7-H7 or cyno B7-H7 (samples ranging from 0.62-40 nM) were injected at a flow rate of 50 μL/min at 37° C. Kinetic data were collected over time and fit using the simultaneous global fit equation to yield affinity constants (KD values) for each antibody.

Kd [nM]	Binder
4	B1
0.9	B2
0.3	B3
0.4	B4
0.2	B5
0.6	B6
0.8	B7
0.8	B8

The binders below were run against T4, human B7-H7 (soluble analyte in SPR) (assay: SPR (Biacore)).
Procedure: as §2
The binding affinity of Hz2D7 to human B7-H7 and cyno B7-H7 was determined using SPR technology (Biacore system) as described herein and compared with the binding affinity of the parental antibody and with a chimeric 2D7 antibody comprising the murine heavy chain and light chain variable regions of 2D7 and a human Fc region.

Kd [nM]	koff [s⁻¹]	Binder
< 0.1	5.61e-06	B9
< 0.1	1.01e-05	B10
